The values that follow come from US20180186871A1 (SINGAPORE HEALTH SERVICES PTE, published 2018).

Test [1] addresses T1, FLAG-tagged human IL-11 expressed at the cell surface (human, UniProt P20809 22-199).
T1 construct: whole, on cells; also called IL-11 expressing HEK cells; target cells expressing human IL-11 at their surface; not shown: how the protein is held at
T1 sequence (looked up): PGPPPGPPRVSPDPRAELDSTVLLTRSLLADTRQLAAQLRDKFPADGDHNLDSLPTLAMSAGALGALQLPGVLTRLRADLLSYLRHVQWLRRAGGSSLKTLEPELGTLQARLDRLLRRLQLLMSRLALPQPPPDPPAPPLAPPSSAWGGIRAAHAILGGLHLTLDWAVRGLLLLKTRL
The test can be described thus: flow cytometry of hybridoma subclone supernatants on cells transfected with pB1-IL11-hum.FL (FLAG-tagged human IL-11 at the cell surface), anti-mouse IgG detection; sheet says 'flow cytometry (Attunes)', legend says iQue. (In general: A flow cytometer gives signals particle by particle.)

The target of test [2] is T2, human IL-11 (human, UniProt P20809 22-199).
T2 sequence (looked up): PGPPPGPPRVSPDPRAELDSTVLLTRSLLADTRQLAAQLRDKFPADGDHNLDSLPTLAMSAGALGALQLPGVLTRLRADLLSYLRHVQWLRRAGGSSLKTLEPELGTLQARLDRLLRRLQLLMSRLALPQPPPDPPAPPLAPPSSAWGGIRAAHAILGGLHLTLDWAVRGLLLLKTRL
The experiment in a line: cell-based or functional assay.

Test [3] concerns the target T2, human IL-11. The experiment in a line: ELISA on coated recombinant human IL-11, scFv-Fc dilution series.
The target of test [4] is T2, human IL-11. The experiment in a line: ELISA binding signal. (In general: An ELISA detects its analyte on a solid surface through an enzyme-linked reagent.)
The target of test [5] is T2, human IL-11. The test can be described thus: EC50 from the indirect ELISA titrations of FIGS. 28A-28F on plate-coated recombinant human IL-11 (five-parameter fit), ng/ml is the concentration unit of FIG. 28 and paragraph 502.
In test [6] the target is T2, human IL-11. The test can be described thus: indirect ELISA on plate-coated recombinant human IL-11 (1 µg/mL), detection with HRP anti-human IgG (Fc-specific), absorbance 450-570 nm.

B1: BSN-7D4 (antibody, V domains shown)
VH: EVQLQQSGPELVKPGASVKISCKASGYTFTDYNMDWVKQSQGKRLEWIGDINPNYGGTIYNQKFKGKATLTVDKSSSTAYMELRSLTSEDTTVYYCTRGELGHWYFDVWGTGTTVTVSS
VL: DIVLTQSPPSLTVSLGQRATISCRASKSVSASGYSYMHWYQQKPGQPPKLLIYLTSNLESGVPARFSGSGSGTDFTLNIHPVEEEDAATYYCQHSWDLPPTFGGGTKLEIK
On to B1, for which, in test [1], the “% positive (anti-FLAG positive control = 100%)” value (“% positive” below) stood at 176%.

B2: YU100-G08 (scFv)
scFv: QVQLVQSGGGVVQPGRSLRLSCAASGFTFSSYGMHWVRQAPGKGLEWVAVISYDGSNKYYADSVKGRFTISRDNSKNTLYLQMNSLRAEDTAVYYCAKIGATDPLDYWGQGTLVTVSSGSASAPKLEEGEFSEARVQSALTQPRSVSGSPGQSVTLSCTGTSSDVGGYNYVSWYQHYPGKAPKLMIFDVNERSSGVPDRFSGSKSGNTASLTISGLQAEDEADYYCCSYAGRYTWMFGGGTKVTVL
notes: light chain-shuffled human anti-IL-11 clone
Take B2: in the test with human IL-11 [2], the “MMP2 production (ng/ml), TGFB1-stimulated human atrial fibroblasts, Experiment 1 (NEG 42.7, POS 70.2)” value (from here on “MMP2 production (ng/ml) … (NEG 42.7, POS 70.2)”) was 42.3 ng/mL and the “MMP2 production (ng/ml), TGFB1-stimulated human atrial fibroblasts, Experiment 2 (NEG 36.2, POS 62.3)” value (“MMP2 production (ng/ml) … (NEG 36.2, POS 62.3)” for short) amounted to 38 ng/mL. In addition, the EC50 (usually the concentration needed to bring the measured effect to its halfway point) with human IL-11 [3] amounted to 0.028 µg/mL. Besides, the “hIL11 - average signal” value in the test with human IL-11 [4] amounted to 0.153.

B3: YU45-G7 (Fc fusion)
VH: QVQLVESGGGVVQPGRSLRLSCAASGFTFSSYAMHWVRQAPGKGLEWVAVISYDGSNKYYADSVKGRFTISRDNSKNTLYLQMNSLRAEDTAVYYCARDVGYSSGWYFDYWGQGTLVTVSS
VL: QSVLTQPPSVSAAPGRTVTISCSGSYSNVGSNLVSWYQQLPGTAPKLVIYEDDKRLSGIPDRFSGSKSGTSASLAISGLQSEDEADYYCAAWDDSLKGHVFGGGTQLTVL
notes: tested as scFv-Fc (human IgG1); also called #33
As to B3, the EC50 in the test with human IL-11 [5] amounted to 0.0101 µg/mL.

B4: BSN-2G6 (antibody, V domains shown)
VH: QVQLQESGPELVKPGASVKIPCKASGYTFTDYNMDWVKQSHGKSLEWIGNINPDNGGTIYNQKFKGKATLTVDKSSSTAYMELRSLTSEDTAVYFCAREGPYGYTWFAYWGQGTLDTVSA
VL: DILLTQSPAILSVSPGERVSFSCRASQSIGTSIHWYQQRTNGSPRLLIKYASESISGIPSRFSGSGSGTDFTLSINSVESEDIADYYCQQSNSWPLTFGAGTKLELK
notes: mouse monoclonal anti-human IL-11 antibody from a hybridoma; also called A5
As to B4, the “% positive” value in test [1] worked out at 23%.

B5: YU46-G8 (Fc fusion, not shown: a dimerising Fc or GST; small tags and cut ends)
VH: EVQLVESGGGVVQPGRSLRLSCAASGFSLGSYGMHWVRQAPGKGLEWVAVISYDGSNKYYADSVKGRFTISRDNSKNTLYLQMNSLRAEDTAVYYCAKGSYYFDYWGQGTLVTVSS
VL: DIQMTQSPSSLSASVGDRVTITCRASQGSSSYLAWYQQKPGKAPKLLIYAASSLQSGVPSRFSGSGSGTDFTLTISSLQPEDFATYYCQQSYSTPLYTFGQGTKLEIK
notes: tested as scFv-Fc (human IgG1); also called #54
As for B5, the EC50 with human IL-11 [5] came out at 0.0323 µg/mL.

B6: BSN-2E1 (antibody, V domains shown)
VH: QVQLQESGPELVKPGASVKIPCKASGYTFTDYNMDWVKQSHGKSLEWIGDINPHNGGPIYNQKFTGKATLTVDKSSSTAYMELRSLTSEDTAVYYCARGELGHWYFDVWGTGTTVTVSS
VL: NIVMTQSPKSMSMSVGERVTLTCKASENVVTYVSWYQQKPEQSPKLLIYGASNRYTGVPDRFTGSGSATDFTLTISSVQAEDLADYHCGQGYSYPYTFGGGTKLEIK
notes: mouse monoclonal anti-human IL-11 antibody from a hybridoma; also called A3
As for B6, in test [1], the “% positive” value was found to be 164%.

B7: BSN-3C6 (antibody, V domains shown)
VH: EVQLQQSGPELVKPGASVKIPCKASGYTFTDYNMDWVKQSHGKSLEWIGDINPHNGGPIYNQKFTGKATLTVDKSSSTAYMELRSLTSEDTAVYYCARGELGHWYFDVWGTGTTVTVSS
VL: DIVLTQSPASLAVSLGQRATISCRASKSVSTSGYSYIHWYQQKPGQPPKLLIYLASNLDSGVPARFSGSGSGTDFTLNIHPVEEEDAATYYCQHSRDLPPTFGGGTKLEIK
B7: in test [1], the “% positive” value was 176%.

B8: BSN-8H11 (antibody, V domains shown)
VH: EVQLQQSGPELVKPGASVKIPCKASGYTFTDYNIDWVKQSHGKSLEWIGDINPNYGGTLYNQKFKGKATLTVDKSSSTAYMELRSLTSEDTAVYYCARGELGHWYFDVWGTGTTVTVSS
VL: DIVLTQSPASLAVSLGQRATISCRASKSVSTSDYSYMHWYQQKPGHPPKLLIYLASNLESGVPARFSGSGSGTDFTLNIHPVEEEDAATYFCQHSRDLPPTFGGGTKLEIK
Consider B8, for which, in test [1], the “% positive” value worked out at 190%.

B9: YU100-F11 (scFv)
scFv: QVQLVESGGGVVQPGRSLRLSCAASGFTFSSYGMHWVRQAPGKGLEWVAVISYDGSNKYYADSVKGRFTISRDNSKNTLYLQMNSLRAEDTAVYYCAKIGATDPLDYWGQGTLVTVSSGSASAPKLEEGEFSEARVQSALTQPASVSGSPGQSITISCTGSSSDVAGYNYVSWYQQHPGKAPKLMIYDVTKRPSGVPDRFSGSKSGNTASLTISGLQAEDEADYYCCSYAGSYTWVFGGGTQLTVL
notes: as for B2
On to B9, for which, in the test with human IL-11 [2], the “MMP2 production (ng/ml) … (NEG 42.7, POS 70.2)” value turned out to be 44.5 ng/mL and the “MMP2 production (ng/ml) … (NEG 36.2, POS 62.3)” value worked out at 37.6 ng/mL. In the test with human IL-11 [3], the EC50 amounted to 0.027 µg/mL. Further, in the test with human IL-11 [4], the “hIL11 - average signal” value worked out at 0.319.

B10: Yu45-G8 (Fc fusion, not shown: a dimerising Fc or GST; small tags and cut ends)
VH: EVQLVESGGGVVQPGRSLRLSCAASGFTFSSYGMHWVRQAPGKGLEWVAVISYDGSNKYYADSVKGRFTISRDNSKNTLYLQMNSLRAEDTAVYYCAKFARGVYLFDYWGQGTLVTVSS
VL: QSALTQPASVSGSPGQSITISCTGTSSDVGGYDYVSWYQQHPGTAPKLMISDVHNRPLGVSNRFSGSKSGNTASLTISGLQAEDEADYYCSSYTSSITWVFGGGTKLTVL
notes: also called YU45-G8/H6; #19
Regarding B10, the EC50 (read off the curve) (as a rule, the concentration at which the effect is half-maximal) with human IL-11 [6] was approximately 0.006 µg/mL. Further, in the test with human IL-11 [5], the EC50 worked out at 0.00629 µg/mL.

B11: YU100-H01 (scFv)
scFv: QVQLVQSGGGVVQPGRSLRLSCAASGFTFSSYAMHWVRQAPGKGLEWVAVISYDGSNKYYADSVKGRFTISRDNSKNTLYLQMNSLRAEDTAVYYCARIMGYDYGDYDVVDYWGQGTLVTVSSGSASAPKLEEGEFSEARVQSALTQPRSVSGSPGQSVTISCTGTSSDVGAYNYVSWYQQHPGKAPKLMIYDVSERPSGVPDRFSGSKSGNTASLTISGLQAEDEADYYCCSYAGSYTWVFGGGTKLTVL
notes: as for B2
On to B11, for which, in the test with human IL-11 [2], the “MMP2 production (ng/ml) … (NEG 42.7, POS 70.2)” value was 48.3 ng/mL and the “MMP2 production (ng/ml) … (NEG 36.2, POS 62.3)” value was found to be 42.2 ng/mL. The EC50 with human IL-11 [3] was determined as 0.053 µg/mL. Also, in the test with human IL-11 [4], the “hIL11 - average signal” value amounted to 0.43.

B12: BSN-1H2 (antibody, V domains shown)
VH: QAQLQQSGAELARPGASVKLSCKASGYTFTSYGITWVKQRTGQGLEWIGDIYPRSGNIYYNENFKGEATLTADKSSSTAYMQLSRLTSEDSAVYFCARSGWEGWFAYWGQGTLVTVSV
VL: DIVMTQSHKFMSTSVGDRVNITCKASQDVGSAVVWYQQKPGQSPKVLIYWASTRHTGVPDRFTGSGSGTDFTLTISNVQSEDLADYFCQQYSSYRTFGGGTKLEIK
As for B12, the “% positive” value in test [1] came out at 157%.

B13: BSN-5B8 (antibody, V domains shown)
VH: QVQLQQSGAELARPGTSVKLSCKASGYTFTSYGISWVKQRTGQGLEWIGEIYPRSSNTYYNEKFKGKATLTADKSSSTAYMELRSLTSEDSADYFCARANWVGYFDVWGTGTTVTVSS
VL: DIVMTQSHKFMSTSVGDRVTITCKASQDVGTAVAWYQQKPGQSPKLLIYWASTRLTGVPDRFTGSGSGTYFTLTINNVQSEDLADYFCQQYSSYRTFGGGTKLEIK
notes: mouse monoclonal anti-human IL-11 antibody from a hybridoma; also called A9
As to B13, the “% positive” value in test [1] is 188%.

B14: YU46-A8 (Fc fusion, not shown: a dimerising Fc or GST; small tags and cut ends)
VH: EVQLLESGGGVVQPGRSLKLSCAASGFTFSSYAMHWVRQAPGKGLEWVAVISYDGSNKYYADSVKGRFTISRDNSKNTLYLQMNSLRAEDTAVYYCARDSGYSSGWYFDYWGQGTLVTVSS
VL: QSALTQPRSVSGSPGQSITISCTGTSSDVGGYEYVSWYQQHPGKAPRLLIYDVSNRPSGVSNRFSGSKSGNTASLTVSGLQAEDEADYYCNSYTSSGTLVVFGGGTKLTVL
notes: tested as scFv-Fc (human IgG1); also called #45
In the case of B14, in the test with human IL-11 [5], the EC50 turned out to be 0.351 µg/mL.

B15: YU46-D3 (Fc fusion, not shown: a dimerising Fc or GST; small tags and cut ends)
VH: EVQLLESGGGVVQPGRSLRLSCAASGFTFSSYAMHWVRQAPGKGLEWVAVISYDGSNKYYADSVKGRFTSSRDNSKNTLYLQMNSLRAEDTAVYYCARSGVLDYWGQGTLVTVSS
VL: QSALTQPASVSGSPGQSITISCTGTSSDVGNYKYVSWYQQHPGKAPKLMIYDVSNRPSGVSNRFSGSKSGNTASLTISGLQAEDEADYYCSSYTSSSTLVVFGGGTKLTVL
notes: tested as scFv-Fc (human IgG1); also called #56
With B15, in the test with human IL-11 [5], the EC50 stood at 0.655 µg/mL.

B16: YU45-D9/D3 (Fc fusion)
VH: EVQLVESGGGVVQPGRSLRLSCAASGFTFSSYGMHWVRQAPGKGLEWVAVISYDGSNKYYADSVKGRFTISRDNSKNTLYLQMNSLRAEDTAVYYCARLHFSQYFSTIDAFDIWGQGTMVTISS
VL: QSVLTQPPSVSAAPGQEVTISCSGSSSNIGNNYVSWYQHLPGTAPKLLIYDNTERPSGIPDRFSGSRSGTSVTLGITGLQTGDEADYYCGTWDSSLSGGVFGGGTKLTVL
notes: tested as scFv-Fc (human IgG1); also called #31
In the case of B16, in the test with human IL-11 [5], the EC50 was determined as 0.71 µg/mL.

B17: YU46-B6 (Fc fusion, not shown: a dimerising Fc or GST; small tags and cut ends)
VH: QVQLVQSGAEVKKPGASVKVSCKASGYTFTSYGISWVRQAPGQGLEWMGWISAYNGNTNYAQKLQGRVTMTTDTSTSTAYMELRSLRSDDTAVYYCARVVAAARSYYYYMDVWGKGTTVTVSS
VL: SSELTQDPAVSVALGQTVRITCQGDSLRGYYATWYQQKPGQAPVVVMYGNNNRPSGIPDRFSGSSSGNTASLTITGAQAEDEADYYCDSRGRSGDHWLFGGGTKLTVL
notes: tested as scFv-Fc (human IgG1); also called #47
For B17, the EC50 with human IL-11 [5] came to 0.222 µg/mL.
